Test results reported in US20240368301A1.

What was measured:
[1] = molecular target: SIRPα V2-his (made by transient transfection of HEK293F cells according to SEQ ID NO:38) (Homo sapiens (Human)) (UniProt P78324); experiment: BLI (Octet RED 96), His-tagged antigen on Ni-NTA sensor, antibody in solution
[2] = molecular target: SIRPα V2-his (made by transient transfection of HEK293F cells according to SEQ ID NO:38) (Homo sapiens (Human)) (UniProt P78324); experiment: competition ELISA; coated SIRPα-V2-his, biotin-CD47 as competitor

SIRPα V2-his (made by transient transfection of HEK293F cells according to SEQ ID NO:38) (Homo sapiens (Human)), sequence (P78324 other isoform, or with tags, fused parts or gaps limits assumed): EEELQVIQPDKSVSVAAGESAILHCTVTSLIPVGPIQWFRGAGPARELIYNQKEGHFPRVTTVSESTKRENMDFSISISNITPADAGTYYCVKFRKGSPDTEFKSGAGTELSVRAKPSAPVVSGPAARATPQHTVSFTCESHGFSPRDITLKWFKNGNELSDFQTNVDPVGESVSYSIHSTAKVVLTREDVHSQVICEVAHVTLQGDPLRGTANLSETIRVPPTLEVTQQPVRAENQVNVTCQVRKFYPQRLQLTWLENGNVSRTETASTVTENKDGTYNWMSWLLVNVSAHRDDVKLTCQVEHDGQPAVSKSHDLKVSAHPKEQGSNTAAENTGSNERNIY

Kd [1]: 0.898 nM
koff [1]: 0.000327 s⁻¹
kon [1]: 364000 M⁻¹ s⁻¹
IC50 [2]: 9.32 nM
B1: AD4-12 (antibody, V domains shown)
VH: EVQLEESGPGLVAPSQSLSITCTVSGFSLTGYGVNWVRQPPGKGLEWLGIIWGDGSTDYNSALKSRLSISKDNSKSQVFLKMNSLQSDDTARYYCARAGKMDYWGQGTSVTVSS
VL: DIVLTQSPASLAVSLGQGATISCRASESVDSYGNSFMHWYQQKPGQPPKPLIYLASNLESGVPARFSGSGSRTDFTLTIDPVEADDAATYYCQQNNEYPWTFGGGTKLEIK
